Source: US20210388087A1 (Chugai, published 2021)

B1: H183/L072 VL H34G (antibody, name in Kabat numbering, V domains shown)
VH: QVQLVESGGGLVQPGRSLRLSCAASGFTFSNAWMHWVRQAPGKGLEWVAQIKDKGNAYAAYYAPSVKGRFTISRDDSKNSIYLQMNSLKTEDTAVYYCHYVHYASASTVLPAFGVDAWGQGTTVTVSS
VL: DIVMTQSPLSLPVTPGEPASISCQASQELVHMNRNTYLGWYQQKPGQAPRLLIYKVSNRFPGVPDRFSGSGSGTDFTLKISRVEAEDVGVYYCAQGTSVPFTFGQGTKLEIK
B2: H183/L072 VL H34K (antibody, name in Kabat numbering, V domains shown)
VH: QVQLVESGGGLVQPGRSLRLSCAASGFTFSNAWMHWVRQAPGKGLEWVAQIKDKGNAYAAYYAPSVKGRFTISRDDSKNSIYLQMNSLKTEDTAVYYCHYVHYASASTVLPAFGVDAWGQGTTVTVSS
VL: DIVMTQSPLSLPVTPGEPASISCQASQELVHMNRNTYLKWYQQKPGQAPRLLIYKVSNRFPGVPDRFSGSGSGTDFTLKISRVEAEDVGVYYCAQGTSVPFTFGQGTKLEIK
B3: H183/L072 VL H34Q (antibody, name in Kabat numbering, V domains shown)
VH: QVQLVESGGGLVQPGRSLRLSCAASGFTFSNAWMHWVRQAPGKGLEWVAQIKDKGNAYAAYYAPSVKGRFTISRDDSKNSIYLQMNSLKTEDTAVYYCHYVHYASASTVLPAFGVDAWGQGTTVTVSS
VL: DIVMTQSPLSLPVTPGEPASISCQASQELVHMNRNTYLQWYQQKPGQAPRLLIYKVSNRFPGVPDRFSGSGSGTDFTLKISRVEAEDVGVYYCAQGTSVPFTFGQGTKLEIK
B4: H183/L072 VL H34S (antibody, name in Kabat numbering, V domains shown)
VH: QVQLVESGGGLVQPGRSLRLSCAASGFTFSNAWMHWVRQAPGKGLEWVAQIKDKGNAYAAYYAPSVKGRFTISRDDSKNSIYLQMNSLKTEDTAVYYCHYVHYASASTVLPAFGVDAWGQGTTVTVSS
VL: DIVMTQSPLSLPVTPGEPASISCQASQELVHMNRNTYLSWYQQKPGQAPRLLIYKVSNRFPGVPDRFSGSGSGTDFTLKISRVEAEDVGVYYCAQGTSVPFTFGQGTKLEIK
B5: H183/L072 VL H34L (antibody, name in Kabat numbering, V domains shown)
VH: QVQLVESGGGLVQPGRSLRLSCAASGFTFSNAWMHWVRQAPGKGLEWVAQIKDKGNAYAAYYAPSVKGRFTISRDDSKNSIYLQMNSLKTEDTAVYYCHYVHYASASTVLPAFGVDAWGQGTTVTVSS
VL: DIVMTQSPLSLPVTPGEPASISCQASQELVHMNRNTYLLWYQQKPGQAPRLLIYKVSNRFPGVPDRFSGSGSGTDFTLKISRVEAEDVGVYYCAQGTSVPFTFGQGTKLEIK
B6: H183/L072 VL K50D (antibody, name in Kabat numbering, V domains shown)
VH: QVQLVESGGGLVQPGRSLRLSCAASGFTFSNAWMHWVRQAPGKGLEWVAQIKDKGNAYAAYYAPSVKGRFTISRDDSKNSIYLQMNSLKTEDTAVYYCHYVHYASASTVLPAFGVDAWGQGTTVTVSS
VL: DIVMTQSPLSLPVTPGEPASISCQASQELVHMNRNTYLHWYQQKPGQAPRLLIYDVSNRFPGVPDRFSGSGSGTDFTLKISRVEAEDVGVYYCAQGTSVPFTFGQGTKLEIK
B7: H183/L072 VL H34N (antibody, name in Kabat numbering, V domains shown)
VH: QVQLVESGGGLVQPGRSLRLSCAASGFTFSNAWMHWVRQAPGKGLEWVAQIKDKGNAYAAYYAPSVKGRFTISRDDSKNSIYLQMNSLKTEDTAVYYCHYVHYASASTVLPAFGVDAWGQGTTVTVSS
VL: DIVMTQSPLSLPVTPGEPASISCQASQELVHMNRNTYLNWYQQKPGQAPRLLIYKVSNRFPGVPDRFSGSGSGTDFTLKISRVEAEDVGVYYCAQGTSVPFTFGQGTKLEIK
B8: H183/L072 VL H34T (antibody, name in Kabat numbering, V domains shown)
VH: QVQLVESGGGLVQPGRSLRLSCAASGFTFSNAWMHWVRQAPGKGLEWVAQIKDKGNAYAAYYAPSVKGRFTISRDDSKNSIYLQMNSLKTEDTAVYYCHYVHYASASTVLPAFGVDAWGQGTTVTVSS
VL: DIVMTQSPLSLPVTPGEPASISCQASQELVHMNRNTYLTWYQQKPGQAPRLLIYKVSNRFPGVPDRFSGSGSGTDFTLKISRVEAEDVGVYYCAQGTSVPFTFGQGTKLEIK

Target: T1, Human CD3eg linker (human)
T1 construct: Single-chain construct; also called recombinant human CD3
T1 chain: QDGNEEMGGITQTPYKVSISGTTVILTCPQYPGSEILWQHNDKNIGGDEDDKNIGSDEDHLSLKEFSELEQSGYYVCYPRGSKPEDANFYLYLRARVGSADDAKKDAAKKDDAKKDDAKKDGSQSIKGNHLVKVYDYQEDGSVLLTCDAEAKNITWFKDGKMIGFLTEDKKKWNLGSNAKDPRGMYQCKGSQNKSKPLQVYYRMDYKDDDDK
Assay: SPR; fold vs parent H183/L072

**Q.** For B1, which “fold change of affinity” value is on record?
**A.** 0.3 fold

**Q.** For B2, which “fold change of affinity” value is on record?
**A.** 0.4 fold

**Q.** B3 was tested. Which “fold change of affinity” value did it give?
**A.** 0 fold

**Q.** Which “fold change of affinity” value does the source give for B4 here?
**A.** 0.5 fold

**Q.** Which “fold change of affinity” value does the source give for B5 here?
**A.** 0 fold

**Q.** How did the “fold change of affinity” value turn out when B6 was run?
**A.** 0 fold

**Q.** For B7, which “fold change of affinity” value is on record?
**A.** 0.2 fold

**Q.** How did the “fold change of affinity” value turn out when B8 was run?
**A.** 0.4 fold
